Where a chain is given by its changes, count along the chain named.

The target of test [1] is T1, cynomolgus EREG (Biacore analyte) (cynomolgus monkey, UniProt O14944 63-108 (human entry), limits assumed).
T1 construct: also called cynomolgus monkey EREG; cEREG
Kind of test: SPR (Biacore T100), antibody captured on Protein A, EREG as analyte; KD for monkey EREG over KD for human EREG. Here is the method:
The affinity and association rate constant of an anti-EREG antibody for an antigen were measured by the single-cycle kinetics method of surface plasmon resonance assay using Biacore™-T100 (GE Healthcare Japan). HBS-EP+ (GE Healthcare Japan) was used for the running buffer, and an amine coupling kit (GE Healthcare Japan) was used to covalently bond Protein A to the CM5 chip (carboxymethyl dextran-coated chip). Each anti-EREG antibody was prepared so that approximately 350 RU will be captured by Protein A. Human EREG or cynomolgus EREG used as the analyte was prepared at 0, 0.7, 1.4, 2.8, 5.6, and 11.2 nM using HBS-EP+. Measurement was carried out by first allowing Protein A to capture the antibody solution, and then at a flow rate of 30 μL/min, successively injecting each of the 0, 0.7, 1.4, 2.8, 5.6, and 11.2 nM human EREG or cynomolgus EREG solutions for three minutes to allow reaction to take place. Then, the solution was switched to HBS-EP+, and the dissociation phase was measured for 15 minutes. After completion of the dissociation phase measurement, the sensor chip was washed with 25 mM NaOH and regenerated. The measurement at zero concentration was similarly carried out by allowing Protein A to capture the antibody solution, and performing three-minute HBS-EP+ injections successively for five times to allow reaction to take place, and then switching to HBS-EP+ to measure the dissociation phase for 15 minutes. After completion of the dissociation phase measurement, the sensor chip was washed with 25 mM NaOH and regenerated. A data analysis software exclusively for Biacore, Biacore T100 Evaluation Software Version 2.0.1, was used to perform kinetic analyses to calculate the association rate constant (kₐ), dissociation rate constant (kd), and the rate constant ratio from the obtained sensorgrams. To correct for the day-to-day differences in the measurement values, FIGS. 1 to 4 and Tables 16 and 19 show ratios based on taking the value of the control sample (cH-G1/cL-k) measured on the same day as 1.

The target in test [2] is T2, soluble human EREG fragment having a mature EGF domain structure (R&D Systems cat. no. 1195-EP/CF) (human, UniProt O14944 63-108).
T2 construct: bought; coated on ELISA plates; also called human epiregulin; recombinant human Epiregulin
The test can be described thus: competitive ELISA on coated soluble human EREG fragment. The method, then: The soluble human EREG fragment having a mature EGF domain structure (the polypeptide of SEQ ID NO: 34 which corresponds to ⁶³Val to ¹⁰⁸Leu) was purchased from R&D Systems (cat. no. 1195-EP/CF). The soluble human EREG fragment was used to coat nunc immunoplates, and after blocking with a BSA-containing solution, the competitive binding reactivity between mouse hybridoma-derived EP27 and the purified humanized anti-EREG antibody was analyzed. Mouse hybridoma-derived EP27 and a purified humanized anti-EREG antibody were added to the plates, and after two hours of incubation, the plates were washed; and an alkaline phosphatase-labeled anti-human IgG antibody (Zymed) was added to each well of the plates and then allowed to react. Each well was washed, and then the amount of bound antibody (A405/655 detection value) was determined by addition of a test reagent, Sigma p-Nitrophenyl phosphate Tablets.
(In general: ELISA stands for enzyme-linked immunosorbent assay.)

T1 sequence (O14944 other isoform, or with tags, fused parts or gaps limits assumed): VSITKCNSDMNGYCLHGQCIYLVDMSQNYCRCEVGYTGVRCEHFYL
T2 sequence (O14944 63-108 limits assumed): as the sequence (O14944 other isoform, or with tags, fused parts or gaps limits assumed) above, with N7S, Y45F counted along it

B1: H111-G1d/L47-k (antibody, human IgG1, kappa, V domains shown)
VH: QDQLVQSGAEVKKPGASVKVSCKASGFNIKDTYIQWVRQAPGQGLEWMGRIDPLRGNTKYREKFEGRVTITADTSTNTAYMELSSLRSEDTAVYYCVRSGTLFDFWGQGTLVTVSS
VL: DIQMTQSPSSLSASVGDRVTITCKASQDIHKYIAWYQQKPGQAPRLLIQYTSTLQPGVPSRFSGSGSGTDYTFTISSLQPEDIATYYCLQYDRLRTFGGGTKVEIKR
In the case of B1, the “cEREG KD (nM)/hEREG KD (nM)” value in test [1] was 12.6 ratio.

B2: H6-G1d/LB-k (antibody, human IgG1, kappa, V domains shown)
VH: B1 VH with R55N, R61V, E62P, K63Q, E65Q
VL: B1 VL with R93N
On to B2, for which, in test [2], the binding result was “binds”.

B3: H7-G1d/LB-k (antibody, human IgG1, kappa, V domains shown)
VH: B1 VH with R55N, R61V, E62P, E65D
VL: B1 VL with R93N
As to B3, the binding result in test [2] is reported as “binds”.

B4: H66-G1d/LB-k (antibody, human IgG1, kappa, V domains shown)
VH: B1 VH with R55V, R61V, E62P, E65Q
VL: B1 VL with R93N
notes: also called H66-G1/LB-k
With B4, the binding result in test [2] is listed as “binds”.

B5: H31-G1d/LB-k (antibody, human IgG1, kappa, V domains shown)
VH: B1 VH with R55N, R61V
VL: B1 VL with R93N
Turning to B5, the binding result in test [2] is listed as “binds”.

B6: H61-G1d/LB-k (antibody, human IgG1, kappa, V domains shown)
VH: B1 VH with R55K, R61V, E62P, E65Q
VL: B1 VL with R93N
notes: also called H61-G1/LB-k
Regarding B6, in test [2], the binding result was “binds”.

B7: H57-G1d/LB-k (antibody, human IgG1, kappa, V domains shown)
VH: B1 VH with R55T, R61V, E62P, E65Q
VL: B1 VL with R93N
notes: also called H57-G1/LB-k
For the molecule B7, the binding result in test [2] was “binds”.

B8: H9-G1d/LB-k (antibody, human IgG1, kappa, V domains shown)
VH: B1 VH with R55N, R61V, E62P, E65Q, G66D
VL: B1 VL with R93N
In the case of B8, in test [2], the binding result is “binds”.

B9: H41-G1d/LB-k (antibody, human IgG1, kappa, V domains shown)
VH: B1 VH with R55N, R61H, E62P, E65Q
VL: B1 VL with R93N
On to B9, for which, in test [2], the binding result is on record as “binds”.

B10: H3-G1d/LB-k (antibody, human IgG1, kappa, V domains shown)
VH: B1 VH with R55N, R61V, E62D, E65Q
VL: B1 VL with R93N
On to B10, for which the binding result in test [2] is “binds”.

B11: H71-G1d/LB-k (antibody, human IgG1, kappa, V domains shown)
VH: B1 VH with D31A, R55N, R61V, E62P, E65Q
VL: B1 VL with R93N
notes: also called H71-G1/LB-k
Regarding B11, the binding result in test [2] is listed as “binds”.

B12: H116-G1d/LB-k (antibody, human IgG1, kappa, V domains shown)
VH: B1 VH with G56R
VL: B1 VL with R93N
For the molecule B12, the “cEREG KD (nM)/hEREG KD (nM)” value in test [1] came to 6.1 ratio.

B13: H25-G1d/LB-k (antibody, human IgG1, kappa, V domains shown)
VH: B1 VH with R55N, R61V, E62P, E65Q, L102S
VL: B1 VL with R93N
In the case of B13, the binding result in test [2] is “binds”.

B14: H111-G1d/LB-k (antibody, human IgG1, kappa, V domains shown)
VH: B1 VH
VL: B1 VL with R93N
As to B14, in test [1], the “cEREG KD (nM)/hEREG KD (nM)” value was 9 ratio.

B15: H5-G1d/LB-k (antibody, human IgG1, kappa, V domains shown)
VH: B1 VH with R55N, R61V, E62P, K63S, E65Q
VL: B1 VL with R93N
As for B15, the binding result in test [2] was “binds”.

B16: H112-G1d/LB-k (antibody, human IgG1, kappa, V domains shown)
VH: B1 VH with I51R
VL: B1 VL with R93N
For B16, in test [1], the “cEREG KD (nM)/hEREG KD (nM)” value worked out at 16 ratio.

B17: H117-G1d/LB-k (antibody, human IgG1, kappa, V domains shown)
VH: B1 VH with N57R
VL: B1 VL with R93N
With B17, the “cEREG KD (nM)/hEREG KD (nM)” value in test [1] came to 7.9 ratio.

B18: H23-G1d/LB-k (antibody, human IgG1, kappa, V domains shown)
VH: B1 VH with R55N, N57S, R61V, E62P, E65Q
VL: B1 VL with R93N
notes: also called H23-G1/LB-k
In the case of B18, the binding result in test [2] is “binds”.

B19: H67-G1d/LB-k (antibody, human IgG1, kappa, V domains shown)
VH: B1 VH with R55L, R61V, E62P, E65Q
VL: B1 VL with R93N
notes: also called H67-G1/LB-k
B19: in test [2], the binding result is “binds”.

B20: HY-G1d/L12-k (antibody, human IgG1, kappa, V domains shown)
VH: B1 VH with R55N, R61V, E62P, E65Q
VL: B1 VL with Q55E, R93N
Turning to B20, in test [2], the binding result is “binds”.

B21: H87-G1d/L37-k (antibody, human IgG1, kappa, V domains shown)
VH: B1 VH with R55T, N57Q, R61Q, L102S
VL: B1 VL with K24Q, F73L, I83F, R93N
As to B21, the binding result in test [2] is “binds”.

B22: HY-G1d/L30-k (antibody, human IgG1, kappa, V domains shown)
VH: B1 VH with R55N, R61V, E62P, E65Q
VL: B1 VL with D92E, R93N
notes: the text names only HY-G1d/L32-k as obtained; also called HY-G1/L30-k
In the case of B22, the binding result in test [2] is “binds”.

B23: HY-G1d/L32-k (antibody, human IgG1, kappa, V domains shown)
VH: B1 VH with R55N, R61V, E62P, E65Q
VL: B1 VL with D92E, R93Q
notes: also called HY-G1/L32-k
On to B23, for which the binding result in test [2] was “binds”.

B24: H45-G1d/LB-k (antibody, human IgG1, kappa, V domains shown)
VH: B1 VH with R55N, R61T, E62P, E65Q
VL: B1 VL with R93N
With B24, the binding result in test [2] was “binds”.

B25: H43-G1d/LB-k (antibody, human IgG1, kappa, V domains shown)
VH: B1 VH with R55N, E62P, E65Q
VL: B1 VL with R93N
For B25, the binding result in test [2] is recorded as “binds”.

B26: HY-G1d/L2-k (antibody, human IgG1, kappa, V domains shown)
VH: B1 VH with R55N, R61V, E62P, E65Q
VL: B1 VL with K24S, R93N
As to B26, in test [2], the binding result is reported as “binds”.

B27: H42-G1d/LB-k (antibody, human IgG1, kappa, V domains shown)
VH: B1 VH with R55N, R61K, E62P, E65Q
VL: B1 VL with R93N
B27: the binding result in test [2] is “binds”.

B28: H40-G1d/LB-k (antibody, human IgG1, kappa, V domains shown)
VH: B1 VH with R55N, N57Q, R61V, E62P, E65Q
VL: B1 VL with R93N
notes: also called H40-G1/LB-k
Regarding B28, the binding result in test [2] is reported as “binds”.

B29: H87-G1d/L21-k (antibody, human IgG1, kappa, V domains shown)
VH: B1 VH with R55T, N57Q, R61Q, L102S
VL: B1 VL with K24Q, R93N, K106E
B29: the binding result in test [2] is on record as “binds”.

B30: H65-G1d/LB-k (antibody, human IgG1, kappa, V domains shown)
VH: B1 VH with R55F, R61V, E62P, E65Q
VL: B1 VL with R93N
notes: also called H65-G1/LB-k
In the case of B30, the binding result in test [2] is recorded as “binds”.

B31: H44-G1d/LB-k (antibody, human IgG1, kappa, V domains shown)
VH: B1 VH with R55N, R61S, E62P, E65Q
VL: B1 VL with R93N
On to B31, for which the binding result in test [2] is “binds”.

B32: H10-G1d/LB-k (antibody, human IgG1, kappa, V domains shown)
VH: B1 VH with R55N, R61V, E62P, E65Q, G66E
VL: B1 VL with R93N
In the case of B32, the binding result in test [2] is recorded as “binds”.

B33: H111-G1d/L48-k (antibody, human IgG1, kappa, V domains shown)
VH: B1 VH
VL: B1 VL with R93N, L94R
B33: the “cEREG KD (nM)/hEREG KD (nM)” value in test [1] came to 8.4 ratio.

B34: H8-G1d/LB-k (antibody, human IgG1, kappa, V domains shown)
VH: B1 VH with R55N, R61V, E62P
VL: B1 VL with R93N
As for B34, in test [2], the binding result is listed as “binds”.

(Values after patent publication US20160159919A1 (Chugai, published 2016).)
